Measurements as given in patent US20050118170A1.
Values belong to the substance of their own block, whether it stands above or below them.

Assays:
[1] = target: human collagen type I (human) (UniProt P02452); assay: adherence of cells to collagen-coated plates, 30 minutes at 37° C.; not inhibited by anti-β1 integrin blocking antibody
[2] = target: DDR1b (discoidin domain receptor 1, isoform b), full-length human, overexpressed in THP-1 cells (human) (UniProt Q08345); assay: cell-based or functional assay
Chain of DDR1b (discoidin domain receptor 1, isoform b), full-length human, overexpressed in THP-1 cells (human) (Q08345 19-913, form in doubt): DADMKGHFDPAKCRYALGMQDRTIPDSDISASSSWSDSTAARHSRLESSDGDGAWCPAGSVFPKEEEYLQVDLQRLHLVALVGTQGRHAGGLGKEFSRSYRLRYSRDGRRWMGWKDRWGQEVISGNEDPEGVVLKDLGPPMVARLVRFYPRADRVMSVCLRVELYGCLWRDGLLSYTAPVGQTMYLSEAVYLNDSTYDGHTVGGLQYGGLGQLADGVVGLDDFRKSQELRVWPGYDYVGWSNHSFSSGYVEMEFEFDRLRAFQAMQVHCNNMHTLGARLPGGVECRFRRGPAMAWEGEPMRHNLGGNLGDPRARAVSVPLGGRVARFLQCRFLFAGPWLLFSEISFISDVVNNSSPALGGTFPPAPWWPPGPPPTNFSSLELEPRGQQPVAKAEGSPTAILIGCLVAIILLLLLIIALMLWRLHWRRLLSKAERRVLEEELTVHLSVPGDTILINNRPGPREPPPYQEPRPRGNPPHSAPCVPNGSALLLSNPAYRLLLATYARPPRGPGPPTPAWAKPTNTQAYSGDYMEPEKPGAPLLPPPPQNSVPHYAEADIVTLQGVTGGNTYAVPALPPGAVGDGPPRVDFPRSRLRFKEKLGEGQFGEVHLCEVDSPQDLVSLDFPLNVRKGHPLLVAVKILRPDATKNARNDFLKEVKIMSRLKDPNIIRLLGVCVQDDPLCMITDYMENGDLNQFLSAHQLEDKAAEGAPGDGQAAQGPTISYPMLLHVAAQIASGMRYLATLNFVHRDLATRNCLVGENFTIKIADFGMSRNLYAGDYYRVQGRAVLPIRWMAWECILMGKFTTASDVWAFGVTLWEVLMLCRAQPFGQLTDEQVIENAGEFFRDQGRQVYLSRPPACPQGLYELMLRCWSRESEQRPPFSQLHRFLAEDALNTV

Chain of human collagen type I (human) (P02452 162-1218 limits assumed, chain 1 of 2): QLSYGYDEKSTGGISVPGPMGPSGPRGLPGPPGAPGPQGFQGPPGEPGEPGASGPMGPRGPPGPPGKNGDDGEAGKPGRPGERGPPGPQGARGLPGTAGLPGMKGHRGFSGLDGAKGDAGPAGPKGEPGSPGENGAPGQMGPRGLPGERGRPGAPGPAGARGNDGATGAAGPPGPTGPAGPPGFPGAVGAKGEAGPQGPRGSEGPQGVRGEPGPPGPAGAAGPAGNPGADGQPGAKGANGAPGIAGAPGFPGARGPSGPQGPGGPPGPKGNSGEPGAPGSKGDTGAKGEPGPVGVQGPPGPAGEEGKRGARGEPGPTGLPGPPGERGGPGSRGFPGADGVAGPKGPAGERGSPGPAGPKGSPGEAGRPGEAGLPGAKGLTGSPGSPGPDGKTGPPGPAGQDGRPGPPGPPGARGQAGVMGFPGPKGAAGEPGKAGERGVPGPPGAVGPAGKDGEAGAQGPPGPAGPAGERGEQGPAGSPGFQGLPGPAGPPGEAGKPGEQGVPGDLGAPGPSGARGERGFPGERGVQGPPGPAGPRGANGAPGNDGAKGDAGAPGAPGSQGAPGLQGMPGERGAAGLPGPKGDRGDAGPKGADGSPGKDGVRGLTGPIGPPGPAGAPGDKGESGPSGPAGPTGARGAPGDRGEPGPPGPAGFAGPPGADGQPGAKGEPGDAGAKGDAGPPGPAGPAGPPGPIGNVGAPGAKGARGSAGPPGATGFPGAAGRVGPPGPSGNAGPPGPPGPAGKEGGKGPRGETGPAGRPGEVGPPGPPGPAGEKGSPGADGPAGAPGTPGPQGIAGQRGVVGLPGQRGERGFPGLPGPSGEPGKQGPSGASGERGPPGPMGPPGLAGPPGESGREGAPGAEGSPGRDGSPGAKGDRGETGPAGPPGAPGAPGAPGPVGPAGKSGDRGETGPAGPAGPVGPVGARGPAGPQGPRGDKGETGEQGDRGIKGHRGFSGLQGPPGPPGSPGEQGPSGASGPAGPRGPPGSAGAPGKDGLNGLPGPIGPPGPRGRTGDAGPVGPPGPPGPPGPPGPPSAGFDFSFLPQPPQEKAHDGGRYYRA
Chain of human collagen type I (human) (P08123 80-1119 limits assumed, chain 2 of 2, further chain): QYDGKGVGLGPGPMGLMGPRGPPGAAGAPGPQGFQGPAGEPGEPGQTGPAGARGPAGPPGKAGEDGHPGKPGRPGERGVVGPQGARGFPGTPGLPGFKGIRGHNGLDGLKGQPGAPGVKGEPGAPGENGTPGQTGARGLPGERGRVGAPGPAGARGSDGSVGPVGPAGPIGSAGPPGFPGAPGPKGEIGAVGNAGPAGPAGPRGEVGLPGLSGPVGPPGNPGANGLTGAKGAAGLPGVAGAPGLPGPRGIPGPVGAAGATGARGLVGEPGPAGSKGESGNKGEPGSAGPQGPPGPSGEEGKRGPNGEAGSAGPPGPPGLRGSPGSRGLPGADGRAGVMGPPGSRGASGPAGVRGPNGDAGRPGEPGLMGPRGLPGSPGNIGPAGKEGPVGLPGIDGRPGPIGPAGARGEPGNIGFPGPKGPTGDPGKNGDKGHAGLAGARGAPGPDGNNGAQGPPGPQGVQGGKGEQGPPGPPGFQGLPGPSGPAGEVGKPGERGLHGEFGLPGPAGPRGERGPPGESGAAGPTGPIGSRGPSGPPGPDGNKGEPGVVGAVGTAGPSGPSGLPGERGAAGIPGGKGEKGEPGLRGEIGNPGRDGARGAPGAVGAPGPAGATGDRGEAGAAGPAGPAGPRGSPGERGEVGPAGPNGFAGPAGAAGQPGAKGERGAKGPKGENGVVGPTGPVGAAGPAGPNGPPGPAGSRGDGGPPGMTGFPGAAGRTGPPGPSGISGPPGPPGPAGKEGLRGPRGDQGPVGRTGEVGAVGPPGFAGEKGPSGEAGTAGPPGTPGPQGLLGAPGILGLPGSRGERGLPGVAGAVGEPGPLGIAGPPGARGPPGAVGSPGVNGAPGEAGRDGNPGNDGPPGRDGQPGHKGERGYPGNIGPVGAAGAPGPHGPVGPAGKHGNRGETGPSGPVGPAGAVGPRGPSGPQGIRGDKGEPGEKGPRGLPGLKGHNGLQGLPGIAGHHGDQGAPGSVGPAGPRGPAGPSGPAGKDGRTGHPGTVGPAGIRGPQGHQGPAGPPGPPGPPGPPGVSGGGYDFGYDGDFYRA
Chain of DDR1b (discoidin domain receptor 1, isoform b), full-length human, overexpressed in THP-1 cells (Q08345 19-913): as the sequence (Q08345 19-913, form in doubt) above

percent of total cells adherent (% of total cells) [1]: 62
Substance: DDR1b (discoidin domain receptor 1, isoform b), full-length human, overexpressed in THP-1 cells (from UniProt Q08345 19-913)

percent of total cells adherent (% of total cells) [1]: 62
Substance: DDR1a (discoidin domain receptor 1, isoform a), full-length human, overexpressed in THP-1 cells (from UniProt Q08345 19-913)

CD11c-positive cells at 24 hours on collagen-coated plates [2]: 53% | CD14-positive cells at 24 hours on collagen-coated plates [2]: 35% | CD40-positive cells at 24 hours on collagen-coated plates [2]: 19% | HLA-DR-positive cells, 12 hours on collagen-coated plates [2]: 10% | HLA-DR-positive cells, 24 hour incubation on collagen-coated plates [2]: 25% | HLA-DR-positive cells, 48 hour incubation on collagen-coated plates [2]: 70% | MCP-1 release into culture supernatant (ELISA) [2]: 7 fold
Substance: bovine collagen type I (from UniProt P02453 162-1217; P02465 80-1117) (ligand)

decrease in cell proliferation of PMA-treated THP-1 cells on collagen-coated plates [2]: 50%
Substance: bovine collagen type I (from UniProt P02453 162-1217; P02465 80-1117)
